Measured values taken from article PMC8046350.

Molecular target: T1, Egalitarian (EGL) (UniProt Q9W1K4)
T1 sequence: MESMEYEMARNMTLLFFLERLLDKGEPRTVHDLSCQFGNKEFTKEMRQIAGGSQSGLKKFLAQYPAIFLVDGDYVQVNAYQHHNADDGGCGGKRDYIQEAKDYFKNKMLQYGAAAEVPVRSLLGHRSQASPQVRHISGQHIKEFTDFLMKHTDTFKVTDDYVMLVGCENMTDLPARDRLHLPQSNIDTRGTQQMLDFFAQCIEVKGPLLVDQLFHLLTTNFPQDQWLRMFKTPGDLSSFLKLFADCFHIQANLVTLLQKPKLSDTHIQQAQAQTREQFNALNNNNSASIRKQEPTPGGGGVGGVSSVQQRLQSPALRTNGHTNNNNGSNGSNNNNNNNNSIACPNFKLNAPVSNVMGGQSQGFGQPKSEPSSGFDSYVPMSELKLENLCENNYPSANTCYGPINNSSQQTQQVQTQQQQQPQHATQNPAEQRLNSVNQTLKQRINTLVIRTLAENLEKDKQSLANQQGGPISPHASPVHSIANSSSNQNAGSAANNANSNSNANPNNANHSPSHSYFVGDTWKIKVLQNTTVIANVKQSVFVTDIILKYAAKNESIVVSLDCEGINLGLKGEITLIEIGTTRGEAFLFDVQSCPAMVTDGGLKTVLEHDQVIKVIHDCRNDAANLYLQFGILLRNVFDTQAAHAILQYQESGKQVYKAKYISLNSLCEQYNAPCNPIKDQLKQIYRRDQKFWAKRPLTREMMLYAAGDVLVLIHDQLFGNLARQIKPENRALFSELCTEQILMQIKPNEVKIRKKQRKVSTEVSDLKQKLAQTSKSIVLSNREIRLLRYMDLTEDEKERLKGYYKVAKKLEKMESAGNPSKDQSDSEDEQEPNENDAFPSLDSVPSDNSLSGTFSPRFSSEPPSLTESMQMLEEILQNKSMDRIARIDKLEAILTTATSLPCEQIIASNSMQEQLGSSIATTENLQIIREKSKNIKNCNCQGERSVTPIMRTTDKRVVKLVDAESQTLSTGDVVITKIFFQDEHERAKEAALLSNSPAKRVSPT
Assay: pull-down
Conditions: reference (all sets normalized to TLS); EGL capture: DXB buffer (30 mM Hepes pH 7.3, 50 mM KCl, 2.5 mM MgCl2, 250 mM sucrose, 1 mM DTT), protease and RNase inhibitors, 90 min (binding temperature not …)

fs(1)K10 TLS
binding signal (fraction of TLS binding): 1
